Consider three molecules from PMC9156741, “Blocking phospholamban with VHH intrabodies enhances contractility and relaxation in heart failure” (Nature Communications, 2022).

For assay [1], the target named is T1, pS16 PLN peptide VI (biotin-HPDP-Cys-EKVQYLTRSAIRRApSTIEMPQQARQ-NH2) (phosphoserine at Ser 16 (pS in the printed sequence); biotin-HPDP on the N-terminal Cys (cysteine persulphide); C-terminal amidation).
T1 peptide: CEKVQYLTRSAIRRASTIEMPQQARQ
In words: SPR; pS16 phosphorylated. (Surface plasmon resonance follows binding to a sensor surface in real time, without labels.)

For assay [2], the target named is T2, pS16 PLN peptide VI (biotin-HPDP-Cys-EKVQYLTRSAIRRApSTIEMPQQARQ-NH2) (phosphoserine at Ser 16 (pS in the printed sequence); biotin-HPDP on the N-terminal Cys (cysteine persulphide); C-terminal amidation).
T2 construct: added N-terminal cysteine residue that carries biotin-HPDP; phospholamban (PLN), stretch of the cytoplasmic regulatory domain, phosphorylated at Ser 16; also called p16S PLN peptide; source: synthetic peptide (Bachem, Switzerland)
T2 peptide: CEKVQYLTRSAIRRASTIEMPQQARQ
Put plainly: SPR; Biacore T200; peptide V or VI immobilised on streptavidin SA chip (50-100 RU); VHH2 as analyte, single-cycle kinetics; PBS pH 7.4 + 0.05% Tween 20; bivalent analyte model; apparent Kd. As to conditions: both partners purified.

In assay [3] the target is T3, PLN peptide V (biotin-HPDP-Cys-EKVQYLTRSAIRRASTIEMPQQARQ-NH2) (biotin-HPDP on the N-terminal Cys (cysteine persulphide); C-terminal amidation).
T3 construct: added N-terminal cysteine residue that carries biotin-HPDP; phospholamban (PLN), stretch of the cytoplasmic regulatory domain; also called non-phosphorylated PLN peptide; source: synthetic peptide (Bachem, Switzerland)
T3 peptide: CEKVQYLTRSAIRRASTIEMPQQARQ
The description is as above. The following applies: both partners purified.

Assay [4] addresses T4, PLN peptide V (biotin-HPDP-Cys-EKVQYLTRSAIRRASTIEMPQQARQ-NH2) (biotin-HPDP on the N-terminal Cys (cysteine persulphide); C-terminal amidation).
T4 peptide: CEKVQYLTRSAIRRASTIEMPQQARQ
In words: SPR.

In assay [5] the target is T4, PLN peptide V …. Put plainly: SPR.
Assay [6] deals with T2, pS16 PLN peptide VI …. Put plainly: SPR; Biacore T200; peptide V or VI immobilised on streptavidin SA chip (50-100 RU); VHH as analyte, single-cycle kinetics with five increasing concentrations; PBS pH 7.4 + 0.05% Tween 20; 1:1 Langmuir model. The following applies: both partners purified.
Assay [7] deals with T3, PLN peptide V …. Described as above. The following applies: both partners purified.
In assay [8] the target is T1, pS16 PLN peptide VI …. In words: SPR; pS16 phosphorylated; kinetic fit.
In assay [9] the target is pS16 PLN peptide VI (biotin-HPDP-Cys-…p…-NH2). Put plainly: SPR; Biacore T200; peptide V or VI immobilised on streptavidin SA chip (50-100 RU); VHH as analyte, single-cycle kinetics with five increasing concentrations; PBS pH 7.4 + 0.05% Tween 20; 1:1 Langmuir model.

B1: VHH2 B4B4 (VHH)
chain: EVQLQESGGGLVQAGGSLRLSCAASGFSFYRHAMGWFRQAPGKEREWVAEIDWEGGYTYYADSVKGRFTISRDNAKNTVYLQMNSLKPEDTAVYYCAAGRDLYAYWGQGTQVTVSSGGGSGGGSGGGSEVQLQESGGGLVQAGGSLRLSCAASGFSFYRHAMGWFRQAPGKEREWVAEIDWEGGYTYYADSVKGRFTISRDNAKNTVYLQMNSLKPEDTAVYYCAAGRDLYAYWGQGTQVTVSS
notes: N-terminal VHH B4 domain; (Gly3Ser)3 linker, as named in the methods and encoded by the printed primers; C-terminal VHH B4 domain; Bivalent VHH on one chain; also called bivalent variant of VHH B4; bivalent VHH2 B4B4; source: E. coli HB2151 (pHEN4 vector); expressed and purified according to previously described protocols
In general, koff refers to the rate constant with which the complex falls apart. High values mean a short-lived complex, low ones a long-lived complex. Regarding B1, the results for the koff in assay [1] and in assay [5] were 0.0052 s⁻¹ and 0.00011 s⁻¹, respectively. The Kd turned out to be 1 nM in [2], 0.15 nM in assay [3] and 0.1 nM in assay [4].

B2: VHH B4 (VHH)
VHH: EVQLQESGGGLVQAGGSLRLSCAASGFSFYRHAMGWFRQAPGKEREWVAEIDWEGGYTYYADSVKGRFTISRDNAKNTVYLQMNSLKPEDTAVYYCAAGRDLYAYWGQGTQVTVSS
notes: VHH B4, from the synthetic LlamdA phage-display VHH library (llama VHH framework); also called clone B4; source: E. coli HB2151, small-scale cultures induced with IPTG (ELISA); expressed and purified according to previously described protocols (SPR)
Regarding B2, the koff in assay [1] amounted to 0.18 s⁻¹; in [5], 0.025 s⁻¹. The Kd was determined as 682 nM in assay [6], 44 nM in [7] and 618 nM in assay [8].

B3: VHH C6 (VHH)
VHH: EVQLQESGGGLVQAGGSLRLSCAASGFTLYAMGWFRQAPGKEREFVAAITPHGSTTYYADSVKGRFTISRDNAKNTVYLQMNSLKPEDTAVYYCHTYYSGSWGQGTQVTVSS
On to B3, for which, in [1], the dissociation rate constant (koff) stood at 0.33 s⁻¹. Moreover, the Kd in assay [9] stood at 680 nM.
